In patent US20220119517A1 (NANJING SANHOME PHARMACEUTICAL, published 2022):
Values belong to the binder of their own block, whether it stands above or below them.

Key:
[1] = target: T1, human Claudin18.2 (CLDN18.2), full length, on cells (human); experiment: FACS on CHO-K1-CLDN18.2 cells, PE-anti human Fc, MFI
T1 construct: also called CLDN18.2-FL; HEK293-CLDN18.2 cells
Procedure: (§1) CHO-K1-CLDN18.2 cells and CHO-K1-CLDN18.1 cells (prepared in Example 5) were digested with gastric cancer cell digestion solution at 37° C. for 15 minutes, respectively; terminated with complete culture medium, centrifuged at 1000 rpm for 5 minutes, the supernatant was discarded; the cells were resuspended with 2% fetal bovine serum-PBS diluent, the cells were adjusted to 1×10⁶ cells/ml, 100 μl of cell suspension was added to each well of the 96-well U-shaped-bottom plate; 2% fetal bovine serum-PBS was used to dilute the humanized antibody and the control antibody to final concentrations of 10 μg/ml, 2 μg/ml, 0.4 μg/ml, 0.08 μg/ml and 0.016 μg/ml, respectively, mixed well with the cells in equal volume, incubated at 4° C. for 1 hour; centrifuged at 1000 rpm for 5 minutes, the supernatant was discarded; 200 μl Cell Stain Buffer (Biolegend) was added to each well to wash twice, centrifuged at 1000 rpm for 5 minutes at each time and the supernatant was discarded; 100 μl of PE-anti human Fc antibody (Biolegend) was added, incubated at 4° C. for 1 hour; washed with Cell Stain Buffer (Biolegend) twice, centrifuged at 1000 rpm for 5 minutes at each time and the supernatant was discarded. 300 μl Cell Stain Buffer was added to resuspend the cells, and detected by BD FACS Jazz flow cytometry analyzer.

[2] = target: T2, human Claudin18.1 (CLDN18.1), full length, on cells (human, UniProt P56856 1-261); experiment: FACS on CHO-K1-CLDN18.1 cells, PE-anti human Fc, MFI
T2 construct: HEK293-CLDN18.1 cells carry a fusion with green fluorescent protein (ZsGreen); CHO-K1-CLDN18.1 cells carry pcDNA3.1-CLDN18.1; The cell line is named under assay; also called CLDN18.1-FL; HEK293-CLDN18.1 cells
Procedure: as §1

[3] = target: T2, human Claudin18.1 (CLDN18.1), full …; experiment: cellular ELISA, hybridoma supernatant on fixed HEK293-CLDN18.1 cells
Procedure: (§2) HEK293-CLDN18.1 and HEK293-CLDN18.2 cells were cultured separately with DMEM complete culture medium containing 10% fetal bovine serum at 37° C., 5% CO₂. When the cells grew to 80%-90% confluency, they were digested with 0.5 mM EDTA-PBS non-trypsin digestion solution at room temperature, and centrifuged at 1000 rpm for 5 minutes, the supernatant was discarded. Resuspended in DMEM complete culture medium, and the cell concentration was adjusted to 6×10⁵ cells/ml. Cells were plated on 96-well cell plates (Corning) pre-coated with polylysine, 100 μl per well, incubated at 37° C., 5% CO₂ for 24 hours, making cells evenly and completely plated on the bottom of the well. The culture supernatant was aspirated, and the cells were fixed with 4% paraformaldehyde at room temperature for 20 minutes, washed 3 times with 200 μl PBS, 2 minutes at each time. The well plates were blocked with 200 μl of 3% BSA-PBS at 37° C. for 1 hour. […] of subclone culture supernatant was taken and added into the well plate, incubated at 37° C. for 1 hour, washed 5 times with PBS. Incubation with HRP-anti mouse IgG+IgM (Jackson) diluted 1:10000 in blocking solution was performed at 37° C. for 1 hour followed by washing 5 times with PBS. 100 μl of TMB one-component color developing solution was added, protected from light at room temperature for 5-10 minutes, terminated with 2M sulfuric acid, and OD450 was read on the microplate reader. The results are shown in Table 3, subclones of which the hybridoma culture supernatant show strong positive binding to CLDN18.2 (that is, the OD value is 50% higher than the OD value of the positive control) include: S3F10C5, S5H3A6, S5H3B6, S5H3D6, S6F10E7, S6H9B8, S6H9C8, C40B10D9, C42B12D10 and C58B11E11. Among these subclones, S5H3A6, S5H3B6, S5H3D6, C40B10D9, C42B12D10 and C58B11E11 show negative binding to CLDN18.1 cells.

[4] = target: T1, human Claudin18.2 (CLDN18.2), full …; experiment: cellular ELISA, hybridoma supernatant on fixed HEK293-CLDN18.2 cells
Procedure: as §2

[5] = target: T2, human Claudin18.1 (CLDN18.1), full …; experiment: FACS on CHO-K1-CLDN18.1 cells
Source text: Human gastric cancer cells NUGC4 and stably transfected cells CHO-K1-CLDN18.1 (prepared in Example 5) were used respectively, to verify the specificity and affinity of the anti-CLDN18.2 antibodies above at the cellular level by FAGS technology. After antibody affinity maturation and screening in vitro, each antibody can bind to the CLDN18.2 target on NUGC4 cells, but not to CHO-K1-CLDN18.1 cells, as compared with the original 3CHI antibody.

[6] = target: T1, human Claudin18.2 (CLDN18.2), full …; experiment: cellular ELISA on fixed HEK293-CLDN18.2 cells
Procedure: HEK293-CLDN18.1 and HEK293-CLDN18.2 cells were resuscitated two weeks in advance, cultured with DMEM complete culture medium containing 10% fetal bovine serum at 37° C., 5% CO₂. When the cells grew to 80%-90% confluency, they were digested with 0.5 mM EDTA-PBS (Sigma) at room temperature, centrifuged at 1000 rpm for 5 minutes, the supernatant was discarded. Cells were resuspended in DMEM complete culture medium, the cell concentration was adjusted to 6×10⁵ cells/ml. Cells were plated on 96-well cell plates (Corning) pre-coated with polylysine at 2.5 μg/well, 100 μl per well, incubated at 37° C., 5% CO₂ for 24 hours, making cells evenly and completely plated on the bottom of the well. The supernatant was aspirated, and the cells were fixed with 4% paraformaldehyde at room temperature for 20 minutes, washed 3 times with 200 μl PBS, 2 minutes at each time. The well plates were blocked with 200 μl of 3% BSA-PBS at 37° C. for 1 hour. Each chimeric antibody was diluted with 3% BSA-PBS to a concentration of 6 μg/ml, and diluted in a 6-fold gradient to a total of 7 concentrations. At the same time, IMAB362-similar-hG1 diluted in the same concentration gradient as the positive control, and human IgG1, kappa isotype control antibody (hereinafter referred to as Isotype, provided by CrownBio (Taicang) Co., Ltd.) as the negative control were added to HEK293-CLDN18.2 and HEK293-CLDN18.1 cell plates, respectively. The cells were incubated at 37° C. for 1 hour, washed 5 times with PBS. Incubation with HRP-anti human IgG (Jackson) diluted 1:10000 in blocking solution was performed at 37° C. for 1 hour followed by washing 5 times with PBS. 100 μl of TMB one-component color developing solution was added, protected from light at room temperature for 5-10 minutes, terminated with 50 μl of 2M sulfuric acid, OD450 was read on the microplate reader. Data processing: the original data was put into GraphPad 5.0 software for plotting and calculation.

B2: Hu330-5 (antibody, V domains shown)
VH: EVQLVESGGGLVQPGGSLRLSCAASGFGFSDYGMAWVRQAPGKGLEWVSFISNSAYSIYYADTVTGRFTISRDNAKNSLYLQMNSLRAEDTAVYYCARLGRGNSFAYWGQGTLVTVSS
VL: DIVMTQSPLSLPVTLGQPASISCKSSQSLLNSGNQKNYLTWYQQRPGQSPRLLIYWGSTRESGVPDRFSGSGSGTDFTLKISRVEAEDVGVYYCQNELFYPLTFGQGTKLEIK
notes: Humanized full antibody; also called humanized antibody Hu330-5
EC50 (read off the curve) [1]: ~0.2 µg/mL
binding result [2]: no binding

B4: B4B10G3 (antibody, V domains shown)
VH: QIQLVQSGPELKKPGETVKISCKASGYTFTNYGMNWVKQAPGKGLKWMGWINTYTGEPTYADDFKGRFAFSLETSASTAYLQINNLKNEDMATYFCARDGQLGLRFAYWGQGTLVTVSA
VL: NIMMTQSPSSLAVSAGEKVTMSCKSSQSVLYSSNQKNYLAWYQQKPGQSPKLLIYWASTRESGVPDRFTGSGSGTDFTLTISSVQAEDLAVYYCHQYLSSRTFGGGTKLEIK
notes: Hybridoma supernatant antibody; murine IgG2b, kappa; also called subclone B4B10G3
OD450 [3]: 0.2 OD
OD450 [4]: 0.343 OD

B6: S6H9B8 (antibody, mouse IgG3, V domains shown)
VH: QVQLQQSGAELARPGASVKLSCKASGYTFTSYGISWVKQRTGQGLEWIGEIYPRSGNTYYNEKFKGKATLTADKSSSTAYMELRSLTSEDSAVYFCASLAWFAYWGQGTLVTVSA
VL: DIVMTQAAPSVPVTPGESVSISCRSSKSLLHSNGNTYLYWFLQRPGQSPQLLIYRMSNLASGVPDRFSGSGSGTAFTLRISRVEAEDVGVYYCMQHLEYPYTFGGGTKLEIK
notes: Hybridoma supernatant antibody; murine IgG3, kappa; also called subclone S6H9B8
OD450 [3]: 1.5 OD
OD450 [4]: 2.35 OD

B7: S5H3B6 (antibody, mouse IgM, V domains shown)
VH: EVKLVESGGGLVQPGGSLKLSCAASGFTFSDYGMAWVRQAPRKGPEWVAFISNLAYSIYYADTVTGRFTISRENAKNTLYLEMSSLRSEDTAMYYCARLGYGNSFAYWGQGTLVTVSA
VL: DIVMTQSPSSLTVTAGEKVTMSCKSSQSLLNSGNQKNYLTWYQQKPGQPPKLLIYWASTRESGVPDRFTGSGSGTDFTLTISSVQAEDLAVYYCQNDYSYPLTFGAGTKLELK
notes: Hybridoma supernatant antibody; murine IgM, kappa; also called subclone S5H3B6
OD450 [3]: 0.152 OD
binding result [3]: no binding
OD450 [4]: 1.38 OD

B9: 17CHI (antibody, V domains shown)
VH: EVQLQQSGPELVKPGASVKMSCKASGYTFTDYNMHWVKQSHGKSLEWIGYINPNNGGTSYNQKFKGKATLTVNKSSSTAYMELRSLTSEDSAVYYCARIYYGNSFAYWGQGTLVTVSA
VL: DIVMTQSPSSLTVTAGEKVTMSCKSSQSLLNSGNQKNYLTWYQQKPGQPPKLLIYWASTRESGVPDRFTGSGSGTDFTLTISSVQAEDLAVYYCQNDYSYPFTFGSGTKLEIK
notes: Human-murine chimeric antibody with the constant region of human IgG1; also called chimeric antibody of C58B11E11
MFI (CLDN18.1) [5]: 14500 MFI
EC50 [6]: 2.44 nM

B10: 19CHI (antibody, V domains shown)
VH: QVQLQQSGAELVKPGASVKMSCKASGYTFTTYPIEWMKQNHGKSLEWIGNFHPYNDDTKYNEKFKGKATLTVEKSSSTVYLELSRLTSDDSAVYYCARRGYGSSYAMDYWGQGTSVTVSS
VL: DIVMTQSPSSLSVSAGEKVTMSCKSSQSLLNSGNQKNYLAWYQQKPGQPPKLLIYGASTRESGVPDRFTGSGSGTDFTLTISSVQAEDLAVYYCQNDHSYPYTFGGGTKLEIK
notes: Human-murine chimeric antibody with the constant region of human IgG1; also called chimeric antibody of C42B12D10
EC50 [6]: 29.9 nM

Next, values leading:

binding result [1]: binds
binding result [2]: no binding
B1: Hu330-3 (antibody, V domains shown)
VH: EVQLLESGGGLVQPGGSLRLSCAASGFGFSDYGMAWVRQAPGKGLEWVSFISNSAYSIYYADTVTGRFTISRDNSKNTLYLQMNSLRAEDTAVYYCARLGRGNSFAYWGQGTLVTVSS
VL: DIVMTQSPDSLAVSLGERATINCKSSQSLLNSGNQKNYLTWYQQKPGQPPKLLIYWGSTRESGVPDRFSGSGSGTDFTLTISSLQAEDVAVYYCQNELFYPLTFGQGTKLEIK
notes: Humanized full antibody; also called humanized antibody Hu330-3

EC50 (read off the curve) [1]: ~0.2 µg/mL
binding result [2]: no binding
B3: Hu330-6 (antibody, V domains shown)
VH: EVQLLESGGGLVQPGGSLRLSCAASGFGFSDYGMAWVRQAPGKGLEWVSFISNSAYSIYYADTVTGRFTISRDNSKNTLYLQMNSLRAEDTAVYYCARLGRGNSFAYWGQGTLVTVSS
VL: DIVMTQSPLSLPVTLGQPASISCKSSQSLLNSGNQKNYLTWYQQRPGQSPRLLIYWGSTRESGVPDRFSGSGSGTDFTLKISRVEAEDVGVYYCQNELFYPLTFGQGTKLEIK
notes: Humanized full antibody; also called humanized antibody Hu330-6

OD450 [3]: 0.114 OD
binding result [3]: no binding
OD450 [4]: 0.664 OD
B5: C40B10D9 (antibody, mouse IgM, V domains shown)
VH: QVQLKESGPGLVAPSQSLSITCTVSGFSLTSYGVSWVRQPPGKGLEWLGVIWGDGSTNYHSALISRLSISKDNSKSQVFLKLNSLQTDDTATYYCAGGLRLWFAYWGQGTLVTVSA
VL: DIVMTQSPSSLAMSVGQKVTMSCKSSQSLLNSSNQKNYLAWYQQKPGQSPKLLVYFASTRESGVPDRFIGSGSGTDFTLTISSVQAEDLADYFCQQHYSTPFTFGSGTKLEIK
notes: Hybridoma supernatant antibody; murine IgM, kappa; also called subclone C40B10D9

OD450 [4]: 0.671 OD
B8: C58B11E11 (antibody, mouse IgG2c, V domains shown)
VH: EVQLQQSGPELVKPGASVKMSCKASGYTFTDYNMHWVKQSHGKSLEWIGYINPNNGGTSYNQKFKGKATLTVNKSSSTAYMELRSLTSEDSAVYYCARIYYGNSFAYWGQGTLVTVSA
VL: DIVMTQSPSSLTVTAGEKVTMSCKSSQSLLNSGNQKNYLTWYQQKPGQPPKLLIYWASTRESGVPDRFTGSGSGTDFTLTISSVQAEDLAVYYCQNDYSYPFTFGSGTKLEIK
notes: Hybridoma supernatant antibody; murine IgG2c, kappa; also called subclone C58B11E11

OD450 [4]: 0.76 OD
B11: C42B12D10 (antibody, mouse IgM, V domains shown)
VH: QVQLQQSGAELVKPGASVKMSCKASGYTFTTYPIEWMKQNHGKSLEWIGNFHPYNDDTKYNEKFKGKATLTVEKSSSTVYLELSRLTSDDSAVYYCARRGYGSSYAMDYWGQGTSVTVSS
VL: DIVMTQSPSSLSVSAGEKVTMSCKSSQSLLNSGNQKNYLAWYQQKPGQPPKLLIYGASTRESGVPDRFTGSGSGTDFTLTISSVQAEDLAVYYCQNDHSYPYTFGGGTKLEIK
notes: Hybridoma supernatant antibody; murine IgM, kappa; also called subclone C42B12D10
